Assay results as given in patent US20180030151A1 (MOGAM INSTITUTE FOR BIOMEDICAL RESEARCH, published 2018).
Changes are numbered by the printed parent chain.

Target: T1, recombinant human TFPI (tissue factor pathway inhibitor) (human, UniProt P10646 29-304)
T1 construct: Biotin-conjugated in the yeast FACS; also called hTFPI; TFPI antigen
Assay: ELISA of phage-library Fab supernatants on TFPI-coated plate
Protocol: Single colonies were collected from the finally amplified library, and then cultured in 1.5 mL of SB/carbenicillin at 37° C. at 220 rpm until an OD600 of about 0.8-1.0 was reached, followed by incubation with 1 mM IPTG at 30° C. at 200 rpm for 12 hours. Next, the cells were centrifuged at 5500 rpm for 5 minutes, and the supernatant was added to a TFPI antigen-coated ELISA plate, incubated at room temperature for 2 hours, and then washed four times with PBST (1×PBS, 0.05% tween 20). Next, a 1:5000 dilution of an HRP/anti-hFab-HRP conjugate (CAT. No. A0293, Sigma) with 1% BSA/1×PBS was added to the cells, after which the cells were incubated at room temperature for 1 hour and washed four times with PBST (1×PBS, 0.05% tween 20). Then, the cells treated with a TMB solution for 5-10 minutes, and a TMB stop solution was added to the cells. Next, the absorbance at a wavelength of 450 nm was measured using the TECAN sunrise, and clones having high O. D values were selected as individual clones.

B1: clone A71 (antibody, V domains shown)
VH: EVQLVESGGGLVKPGGSLRLSCAASGFTFSSYAMNWVRQAPGKGLEWVSTITTGGSYTYYADSVHGRFTISRDNAKNSLYLQMNSLRAEDTAVYYCARQDGNFLMDYWGQGTLVTVSS
VL: DVVMTQTPLSLPVTLGQPASISCKSSQSLLDTDGKTYLNWLQQRPGQSPKRLIYLVSKLDSGVPDRFTGSGSGTDFTLKISRVEAEDVGVYYCWQGTHFPFTFGQGTKVEIKR
notes: Fab from phage library at selection; human IgG4/kappa IgG as purified
B1: binds.

B2: clone A52 (antibody, V domains shown)
VH: B1 VH with Y57H, H65D
VL: B1 VL with T32I
notes: as for B1
B2: binds.
